Test results reported in US20200055913A1 (University of California, published 2020).

What was measured:
[1] = target: T1, his-human CAP1 (cyclic adenylate associated protein 1) (human, UniProt Q01518 1-475, limits assumed); experiment: pull-down on nickel-NTA agarose beads, anti-hRetn Western blot
T1 construct: Proposed receptor of hRetn, tested in the pull-down; also called his-CAP1; His-CAP1; not shown: His tag
Description: (§1) Given that there are no publicly available CAP1 deficient mice, a direct protein-protein interaction of hRetn to TLR4 or CAP1 was investigated as an alternative to cell binding assays. A pull-down assay was performed utilizing recombinant hRetn with histidine (his)-tagged human TLR4, his-human CAP1 or his-maltose binding protein (MBP) as a negative control (FIG. 4G). In the pull-down elution, Western blot using anti-his antibody confirmed that his-MBP, his-TLR4 and his-CAP1 are all pulled down by the nickel-NTA agarose beads. In addition, when blotting the elution fraction with anti-hRetn antibody, hRetn was only present in the elution with his-TLR4, not his-CAP1 or his-MBP. To ensure that this interaction was not due to low-level LPS contamination, this pull-down assay was also performed with mammalian cell-derived hRetn. Similar to E. coli-derived hRetn, mammalian-derived hRetn is only detected when pulled down with his-TLR4, not his-CAP1 or his-MBP.
(§2) Pull-down Assay. […] His-MBP, His-TLR4 and His-CAP1 were detected by anti-His antibody (Abcam), and hRetn was detected by anti-hRetn antibody (donated by Mitchell Lazar) by Western Blot. […]

[2] = target: his-maltose binding protein (MBP) (UniProt P0AEX9 27-396 = MBP); experiment: as above
Description: as §1, §2

[3] = target: T2, human TLR4 on human PBMC (CD14+CD11b+ monocytes) (human, UniProt O00206 24-839); experiment: competitive hRetn/LPS binding assay on human PBMC, flow cytometry
T2 construct: whole, on cells
Description: With reference to FIG. 5J, the functional ability of the hRetn N-peptide to block LPS binding and function was tested. The binding experiments were performed on ice to rule out effects of LPS-induced TLR4 endocytosis, which would have added complexity for interpretation of the data. Pre-incubation of human PBMC with the hRetn N-peptide or full-length hRetn inhibited LPS binding to CD14+CD11 b+ monocytes. […] An additional formulation of human resistin fused to the humanFc Ig fragment was also effective at inhibiting proinflammatory cytokines and promoting IL-10 expression in primary macrophage cultures (FIG. 7C).
Human PBMCs. Human buffy coat was purchased from Zen-bio. Buffy coat was overlaid on top of Histopaque-1077 and spun at 700g at 25° C. with no brake and PBMCs were recovered from the interphase. PBMCs were plated in 96-well plates and stimulated with mammalian-derived human resistin (1 μg/mL, LifeSpan Biosciences) or hRetn N-peptide (1 μg/mL). After 24 hours, ultrapure LPS (100 ng/mL, Invivogen) was added and supernatants recovered for ELISA at 24 hours. Where indicated, cells were incubated for 4 hours with STAT3 (5, 15-DPP, 50 μM) or TBK1 (BX-795, 1 μM) inhibitors prior to hRetn treatment. For the hRetn competitive binding assay, 1×10^6 cells were incubated with recombinant hRetn (0.5 μg), washed in PBS then incubated with 0.5 μg LPS-biotin (incubations were 30 minutes on ice). […]

T2 sequence (O00206 24-839): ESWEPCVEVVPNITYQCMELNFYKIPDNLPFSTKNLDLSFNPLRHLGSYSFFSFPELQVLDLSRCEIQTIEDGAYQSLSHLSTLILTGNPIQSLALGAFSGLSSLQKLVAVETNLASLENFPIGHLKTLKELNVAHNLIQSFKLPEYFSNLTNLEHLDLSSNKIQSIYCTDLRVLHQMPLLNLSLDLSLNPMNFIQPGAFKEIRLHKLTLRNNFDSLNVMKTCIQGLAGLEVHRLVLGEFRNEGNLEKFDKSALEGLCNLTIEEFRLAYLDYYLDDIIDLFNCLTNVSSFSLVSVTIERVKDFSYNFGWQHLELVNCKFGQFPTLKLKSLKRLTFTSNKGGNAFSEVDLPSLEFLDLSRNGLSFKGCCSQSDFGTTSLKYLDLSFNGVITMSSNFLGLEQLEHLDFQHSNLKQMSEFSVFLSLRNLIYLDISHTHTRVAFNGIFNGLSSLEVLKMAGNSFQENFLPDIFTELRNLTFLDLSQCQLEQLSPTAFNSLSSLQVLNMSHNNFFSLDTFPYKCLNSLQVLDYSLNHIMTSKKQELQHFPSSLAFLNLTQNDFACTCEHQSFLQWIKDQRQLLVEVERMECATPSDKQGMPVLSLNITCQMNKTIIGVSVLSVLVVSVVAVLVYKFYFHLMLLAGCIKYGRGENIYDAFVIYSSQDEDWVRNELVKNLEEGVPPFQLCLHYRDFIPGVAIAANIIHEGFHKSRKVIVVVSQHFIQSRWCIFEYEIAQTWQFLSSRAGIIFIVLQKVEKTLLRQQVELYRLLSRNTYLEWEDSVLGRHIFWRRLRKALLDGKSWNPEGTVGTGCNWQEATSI
T1 sequence (Q01518 whole entry): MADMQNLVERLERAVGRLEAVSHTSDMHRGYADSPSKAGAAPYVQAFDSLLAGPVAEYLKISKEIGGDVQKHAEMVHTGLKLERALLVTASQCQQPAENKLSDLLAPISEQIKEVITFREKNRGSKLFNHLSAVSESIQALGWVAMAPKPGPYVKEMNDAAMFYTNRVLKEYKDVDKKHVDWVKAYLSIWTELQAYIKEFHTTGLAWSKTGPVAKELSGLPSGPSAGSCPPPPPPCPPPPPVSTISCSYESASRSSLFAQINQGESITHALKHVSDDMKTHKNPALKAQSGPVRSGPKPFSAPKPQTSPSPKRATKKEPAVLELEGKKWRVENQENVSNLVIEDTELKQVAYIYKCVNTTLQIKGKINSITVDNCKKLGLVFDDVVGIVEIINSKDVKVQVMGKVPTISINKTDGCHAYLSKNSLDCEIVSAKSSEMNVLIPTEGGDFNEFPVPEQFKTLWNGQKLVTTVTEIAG

Row | Binder | binding result [1] | binding result [2] | binding result [3]
1 | recombinant human resistin (hRetn), E. coli-derived (Peprotech) (ligand, Bought protein (Peprotech), made in bacteria; also called recombinant hResistin; E. coli-derived hRetn) SSKTLCSMEEAINERIQEVAGSLIFRAISSIGLECQSVTSRGDLATCPRGFAVTGCTCGSACGSWDVRAETTCHCQCAGMDWTGARCCRVQP | no binding | no binding | –
2 | mammalian cell-derived human resistin (hRetn), 293T cell-derived (LifeSpan Biosciences) (ligand, Bought protein (LifeSpan Biosciences); also called mammalian-derived hRetn; 293T derived hRetn) KTLCSMEEAINERIQEVAGSLIFRAISSIGLECQSVTSRGDLATCPRGFAVTGCTCGSACGSWDVRAETTCHCQCAGMDWTGARCCRVQP | – | – | binds
